According to patent CN113861292A (BIO THERA SOLUTIONS LTD, dated 2021):

T1: mCD40-his(小鼠CD40) (小鼠 (mouse), UniProt P27512 24-193, limits assumed)
T1 construct: Bought His-tagged protein; also called 小鼠的CD40
T1 sequence (looked up): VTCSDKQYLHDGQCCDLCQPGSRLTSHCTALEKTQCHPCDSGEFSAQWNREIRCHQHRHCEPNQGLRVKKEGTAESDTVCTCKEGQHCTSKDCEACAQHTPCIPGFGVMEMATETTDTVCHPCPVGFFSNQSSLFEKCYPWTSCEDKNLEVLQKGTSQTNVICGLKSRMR


Tests used:
[1] = biological target: T2, 人CD40 (human, UniProt P25942 21-277); experiment: flow cytometry (MFI) on HT1080-hCD40 cells
T2 construct: whole, on cells; also called hCD40; CD40 on Daudi cells
T2 sequence (P25942 21-277): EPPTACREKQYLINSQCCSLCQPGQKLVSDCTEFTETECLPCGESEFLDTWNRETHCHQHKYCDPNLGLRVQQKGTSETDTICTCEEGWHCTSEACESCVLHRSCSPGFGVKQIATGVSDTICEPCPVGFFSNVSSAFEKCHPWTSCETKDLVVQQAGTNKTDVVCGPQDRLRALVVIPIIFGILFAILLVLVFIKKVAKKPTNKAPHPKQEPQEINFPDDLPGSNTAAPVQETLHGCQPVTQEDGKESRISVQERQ

[2] = biological target: T2, 人CD40; experiment: flow cytometry (MFI) on Daudi cells expressing CD40
[3] = biological target: T1, mCD40-his(小鼠CD40); experiment: ELISA, 2 μg/ml mCD40-his coated, HRP second antibody

| EC50 [1] [µg/mL] | EC50 [2] [µg/mL] | binding result [3] | Binder |
| --- | --- | --- | --- |
| 0.995 | 0.86 |  | APX005 (antibody, V domains shown) VH: QVQLVESGGGVVQPGRSLRLSCAASGFSFSSTYVCWVRQAPGKGLEWIACIYTGDGTNYSASWAKGRFTISKDSSKNTVYLQMNSLRAEDTAVYFCARPDITYGFAINFWGPGTLVTVSS VL: DIQMTQSPSSLSASVGDRVTIKCQASQSISSRLAWYQQKPGKPPKLLIYRASTLASGVPSRFSGSGSGTDFTLTISSLQPEDVATYYCQCTGYGISWPIGGGTKVEIK |
| 0.593 | 0.414 | no binding | 抗体25 (antibody, human IgG1, kappa, V domains shown, also called antibody 25; 抗CD40抗体) VH: EVQLVESGGGLVQPGGSLRLSCAASGFSFGTYAMSWVRQAPGKGLEWVSGIDSGTGNPFYADSVKGRFTISRDNSKNTLYLQMNSLRAEDTAVYYCARALYYTGFYRPLDYWGQGTLVTVSS VL: DIQMTQSPSSLSASVGDRVTITCRASQGISSYLAWYQQKPGKAPKLLIYAASSLQSGVPSRFSGSGSGTDFTLTISSLQPEDFATYYCQQHYTTPPTFGQGTKVEIKR |
